According to patent publication US20180273595A1 (REGENTS OF THE UNIVERSITY OF MICHIGAN, published 2018):
Where no end group is shown, it is not given here. The star is where a group is joined. Biotin = O=C1N[C@H]2[C@H](CS[C@H]2CCCCC(=O)*)N1

T1: Halo-tagged ERG mutant Y373A (UniProt P11308 1-479)
T1 construct: mature; also called ERG (Y373A); negative control ERG (Y373A); not shown: Halo-tag at the N-terminus
T1 sequence (looked up): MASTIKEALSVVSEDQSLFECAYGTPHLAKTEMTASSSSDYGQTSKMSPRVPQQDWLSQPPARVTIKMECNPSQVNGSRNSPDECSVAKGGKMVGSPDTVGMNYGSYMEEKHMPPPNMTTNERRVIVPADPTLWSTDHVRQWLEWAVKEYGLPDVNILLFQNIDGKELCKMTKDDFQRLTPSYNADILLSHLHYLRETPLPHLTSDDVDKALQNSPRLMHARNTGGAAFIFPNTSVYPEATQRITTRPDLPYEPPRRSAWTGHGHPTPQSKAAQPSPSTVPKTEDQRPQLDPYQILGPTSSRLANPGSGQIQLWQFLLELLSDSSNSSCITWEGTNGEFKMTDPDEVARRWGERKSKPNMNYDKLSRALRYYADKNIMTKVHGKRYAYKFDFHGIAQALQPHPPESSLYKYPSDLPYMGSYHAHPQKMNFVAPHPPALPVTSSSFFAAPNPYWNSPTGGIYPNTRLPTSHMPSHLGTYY

T2: recombinant His-tagged full-length ERG (UniProt P11308 1-479, biotinylated with NHS-PEG4 biotin for the OctetRED assays)
T2 construct: mature; Baculovirus expression in SF9 cells, Ni-NTA purified; also called wild-type ERG; wtERG; not shown: His tag
T2 sequence (looked up): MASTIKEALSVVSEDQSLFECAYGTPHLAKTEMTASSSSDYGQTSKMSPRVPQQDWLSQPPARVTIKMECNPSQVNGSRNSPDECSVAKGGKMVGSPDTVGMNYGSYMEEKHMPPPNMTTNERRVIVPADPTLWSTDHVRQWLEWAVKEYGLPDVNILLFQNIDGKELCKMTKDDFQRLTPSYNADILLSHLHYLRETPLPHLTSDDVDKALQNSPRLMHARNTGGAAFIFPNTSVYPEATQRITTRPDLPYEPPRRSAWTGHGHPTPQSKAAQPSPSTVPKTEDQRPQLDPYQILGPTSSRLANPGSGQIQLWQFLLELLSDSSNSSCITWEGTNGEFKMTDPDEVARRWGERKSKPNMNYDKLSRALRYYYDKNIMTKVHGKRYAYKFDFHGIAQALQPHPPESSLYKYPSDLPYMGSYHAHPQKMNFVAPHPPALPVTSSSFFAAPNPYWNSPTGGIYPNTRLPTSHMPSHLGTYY


Experiments:
[1] = molecular target: T3, Halo-tagged full-length Spi1 (UniProt P17947 1-270); assay: pull-down of Halo-tagged proteins with biotin peptide
T3 construct: mature; not shown: Halo-tag at the N-terminus

[2] = molecular target: T1, Halo-tagged ERG mutant Y373A; assay: as above
[3] = molecular target: T2, recombinant His-tagged full-length ERG; assay: Kd table of synthetic peptides on ERG; assay not given
[4] = molecular target: T2, recombinant His-tagged full-length ERG; assay: binding assay of capped EIP1 variants (FIG. 13); capped EIP1, L5E
[5] = molecular target: T2, recombinant His-tagged full-length ERG; assay: binding assay of capped EIP1 variants (FIG. 13); capped EIP1, Y4E

| Binder | binding result [1] | binding result [2] | Kd [3] [µM] | Kd [4] [µM] | Kd [5] [µM] |
| --- | --- | --- | --- | --- | --- |
| Biotin-LSFGSLP (also called biotin-EIP2) [biotinylated EIP2 peptide (Biotin-LSFGSLP)] | no binding | no binding | – | – | – |
| Ac-LPPYEFT-NH2 [capped EIP1 with L at position five mutated to E] | – | – | 5.09 | 5.1 | – |
| Ac-LPPELFT-NH2 [capped EIP1 with Y at position four mutated to E] | – | – | 3.6 | – | 3.6 |
